As usually defined, the Kd is a measure of binding affinity in units of concentration.

The record followed here is article PMC10325899.

For the assay, the target named is fluorescein labeled GST-PKM1 (UniProt P14618). The assay is described as follows: MST; 40 nM fluorescein-labelled PKM1 with salt-washed ribosomes titrated from 0 to about 1.5 μM in PBS + 5 mM MgCl2, room temperature; three batches of ribosomes fitted globally to a 1:1 model; binding not fully saturated.
Sequence of UniProt P14618 (P14618 other isoform, or with tags, fused parts or gaps): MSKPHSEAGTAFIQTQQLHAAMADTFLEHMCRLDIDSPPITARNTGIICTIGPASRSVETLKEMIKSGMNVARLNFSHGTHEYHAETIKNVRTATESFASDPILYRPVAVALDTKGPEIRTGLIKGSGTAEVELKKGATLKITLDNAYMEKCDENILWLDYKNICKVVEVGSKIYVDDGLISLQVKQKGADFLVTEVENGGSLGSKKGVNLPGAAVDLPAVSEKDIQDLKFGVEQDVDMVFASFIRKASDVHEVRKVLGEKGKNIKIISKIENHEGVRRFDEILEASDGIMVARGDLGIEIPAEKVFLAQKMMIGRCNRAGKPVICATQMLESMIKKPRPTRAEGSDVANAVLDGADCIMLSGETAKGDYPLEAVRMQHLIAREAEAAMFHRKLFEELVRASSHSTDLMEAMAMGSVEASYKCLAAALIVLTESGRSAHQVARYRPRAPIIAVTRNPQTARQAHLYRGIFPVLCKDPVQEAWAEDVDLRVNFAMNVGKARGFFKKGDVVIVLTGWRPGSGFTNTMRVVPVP

Consider “salt-washed ribosomes isolated from HEK293F cells (from UniProt P36578 1-427) (complex)”, for which the Kd came to 0.9 µM.
